Assay results published in the nanobody polyreactivity screen of Harvey et al. (2022).

Test: yeast display, Sf9 membrane polyspecificity reagent, FACS + sequencing; frameworks hold sequencing errors
Method in brief: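 Genes from sorted yeast were amplified by colony PCR, read by MiSeq 2 × 250 sequencing and filtered on CDR length. These cells carried a synthetic nanobody library in Saccharomyces cerevisiae BJ5465 and were sorted by FACS into low and high (top ~1%) gates on anti-HA and streptavidin fluorescence. Polyreactivity is labelled according to the gate of origin.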

With “QVQLVESGGGLVQAGGSLRLSCAASGFIFRYYAMGWYRQAPGKERELVAAISGSGGSTYYADSVKGRFTISRDNAKNTVYLQMNSLKPEDTAVYYCAAYYYGYEYWGQGTQVTVSS” the “polyreactivity (PSR sort gate)” value was “high polyreactivity”.
For “QVQLVESGGGLVQAGGSLRLTCAASGRTFRIYAMGWYRQAPGKERELVAAITRRGGSTYYADSVKGRFTISLDNAKNTVNLQMNSLKPEDTAVYYCAAELRYGYLYPYDSWGQGTQVTVSS”, the “polyreactivity (PSR sort gate)” value was “high polyreactivity”.
For “QVQLQESGGGLVQAVASLRLSCEASVSISSLDYMGWYRQASGKERELVAAIDNGSTTYYADSVKGRLTISRDNAKYTVYLQMNSLKPEDTAVYFCAAVRGRGGTHAYWGQGTQVTVSG”, the “polyreactivity (PSR sort gate)” value was “low polyreactivity”.
With “QVQLVESGGGLVQAGGSLRLSCAASGSTFVQYAMGWYRQAPGKERELVAAITSGGRTNYADSVKGRFTISRDNAKYTVYLQMNSLKPEDTAVYYCAARYGSNSPRGYEYYYWGQGTQVSVSS” the “polyreactivity (PSR sort gate)” value was “low polyreactivity”.
With “QVQLVESGGGLVQAGGSLRLSCAASGRIFDDNAMGWYRQAPGKERELVASITVSTGSTYYADSVKGRFTISRDNAKNTVYLQMNSLKPEDTAVSYCAAPYITPYGTYVFSSDYWGQGTQVTVSS” the “polyreactivity (PSR sort gate)” value was “low polyreactivity”.
With “QVQLVESGGGLVQAGGSLRLSCAASGYIFYANAMGWYRQAPGKERELVASISTGGNTNYADSVKGRFTISRDNAKNTVYLQMKSLKPEDTAVYYCAVRSTVPYLWRTPVTRDYWGQGTQVTVSS” the “polyreactivity (PSR sort gate)” value was “low polyreactivity”.
For “QDQLVESGGGLLQAGGSLRLSCAASGLTFSDYAMGWYRQAPGKEREFVAAITRNGGSTRYADSVKGRFTISRDNAKNTVYVQMNSVKPEDTAVFYCHKVSFVYSRSKGFYYTYLKFEYWGQGTQVTVSS”, the “polyreactivity (PSR sort gate)” value was “low polyreactivity”.
With “QVQLVESGGGLVQAGGSLRLSCAASGLIFWLNAMGWYRQAPGKERELVAAISWTDGTTYYADSVKGRFTISRDNAKNTVYLQMNSLIPEDTAVYYCAAEQVTIEDGVYFDFNSWGQGTQVTVSS” the “polyreactivity (PSR sort gate)” value was “low polyreactivity”.
With “QVQLVESGGGLVQAGGSLRLSCAASGATFYVYAMGWYRQAPGKERELVAAIRYRGGTTHYADSVKGRFTISRDNAKNTVYVQMNSLKPEDTAVYYCAADGYVYRSGRRYDYWGQGTQVTVSS” the “polyreactivity (PSR sort gate)” value was “high polyreactivity”.
In the case of “QDQLVESGGGLVQAGGSLRLSCAASGSTFVANDMGWYRQAPGKERELVASISDGSSTYADSVKGRFTISRDNAKNTVYLQMNSLKPEDTAVYYCAKDGSLDAQSYDYDYWGQGTQVTVSS”, the “polyreactivity (PSR sort gate)” value is reported as “low polyreactivity”.
In the case of “QVQHVESGGGLVQAGVSLRLSCAASGSTITYNAMGWYRQAPGKERELVAAITVSDGSTYYADSVKGRFTISRDNAKNTVYLQMNSLKPEDTAVYYCNAYAVYLRYLWYDYWGQGTQVTVSS”, the “polyreactivity (PSR sort gate)” value is reported as “low polyreactivity”.
For “QVQHVESGGGLVQAGGSLRLSCAASGSTFTGYTMGWYRQAPGKERELVASIRTYYADSVKGRFTISRDNAKNTVYLQMNSLKPEDTAVYYCAADFPSATGGYDYWGQGTQVTVSS”, the “polyreactivity (PSR sort gate)” value was “low polyreactivity”.
With “QVQLVESGGGLVQAGCSLRLSCAASGLIFPGYDMGWYRQAPGKERELVADISDSGANTYYADSVKGRFTISRDNAKNTVYLQMNSLKPEDTAVYYCAADSSWWYGTSFGRFDYWGQGTQVTVSS” the “polyreactivity (PSR sort gate)” value was “low polyreactivity”.
For “QVQLVESGGGLVQAGGSLRISSAASGNIFLYYAMGWYRQAPGKERELVAYIDSSGASTYYADSVKGRFTISRDNAKNTVYLQMNSLKPEDTAVYFCASDEGTVGGQQLRPLMDYWGQGTQVTVSS”, the “polyreactivity (PSR sort gate)” value was “low polyreactivity”.
With “QVQLVESGGGLVQEGGSLRLSCAASGSIFGWYAMGWYRQAPGKEWELVAAIRRGGSTNYADSVKGRFTISRDNAKNTVYLQMNSLKAEVTAVYYCAAGKSGYSKRIFRYSFDYWGQGTQVTVSS” the “polyreactivity (PSR sort gate)” value was “high polyreactivity”.
For “QVQLVESGGGLVQAGGSLRLSCAASGSIFESYAMGWYRQAPGKERELVADITYDGGITYYADSVKGRFTISRDNAKNTVYLQMNSLKPEDTAVYYCATEYRYWQSDYSTYFPYDYWGQGTQVTVSS”, the “polyreactivity (PSR sort gate)” value was “low polyreactivity”.
In the case of “QVQLVESGGGLVQAGGSLRLSCAASGPTFFYYAMGWYRQAPGKERELVAAIRRSGGRTRYADSVKGRFTISRDNAKNTVYLQMNSLKPEDTAVYYCAADDGTHRRGYDYWGQGTQVTVSS”, the “polyreactivity (PSR sort gate)” value is reported as “low polyreactivity”.
In the case of “QVQLVESGGGLVQAGGSLRLSCAASGSTFLNYAMGWYRQAPGKERELVAAISFSGGRTYYADSVKGRFTISRDIAKNTVYLQMNSLKPEDTAVYYCGAGGWRGHYYCGQGTQVTVSS”, the “polyreactivity (PSR sort gate)” value is reported as “high polyreactivity”.
In the case of “QVQLVESGGGLVQAGGSLRLSCAASGPTYWPYAMGWYRQAPGKERELVAAITYSGGGTYYADSVKGRFTISRDNAKNTVYLQMNSLKPEDTAVYYCAKYNYPGRPFDYWGQGTQVTVSS”, the “polyreactivity (PSR sort gate)” value is reported as “low polyreactivity”.
For “QVQLVESGGGLVQAGGSLRLSCAASGRTFSANAMGWYRLAPGKERELVATISSGGRTNYADSVKGRFTISRDNAKNTVYLQMNSLKPEDTAVYYCAKRGPYNRWYGRYDYWGQGTQVTVSS”, the “polyreactivity (PSR sort gate)” value was “low polyreactivity”.
With “QVQLVESGGGLVQAGGSLRLSCAASGRIFRSNVMGWYRQAPGKERELVAAITGRGSSTYYADSVKGRFTISRDNAKNTVYLQMNSLKPEDTAVYYCAKASRYWSLYYWGQGTQVTVSS” the “polyreactivity (PSR sort gate)” value was “high polyreactivity”.
With “QLQLVESGGGLVQAGGSLRLSCAASGFIFDSYAMGWYRQAPGKERELVAAISWSGSSTYYADSVKGRFTISRDNAKNTVFLQMNSLKPEDTAVYYCGALVYPYWGGSMYYWGQGTQVTVSS” the “polyreactivity (PSR sort gate)” value was “high polyreactivity”.
In the case of “QVQLVESGGGLVQAGGRLRLSCAASGRIFDYNAMGWNRQAPWKERELVAAIRTSGGSTYYADSVKGRFTISRDNAKNTVYLPMISLKPEDNAVYYCAATSRRYRVRYDSWGQGTQVTVSS”, the “polyreactivity (PSR sort gate)” value is reported as “high polyreactivity”.
For “QVQLVESGGGLVQAGGSLRLSCAASGIIIVRYAMGWYRQAPGKERELVAAISWSGGRTYYADSVKGRFTISRDNAKNTVYFQINSLKPEDTAVYYCAAAPLYYHRRGYYYWGQGTQVTVSS”, the “polyreactivity (PSR sort gate)” value was “high polyreactivity”.
With “QVQLVESGGGLFQEGGSLRLSCAASGSTFANYVMGWYRQAPGKEREFVAGITRSGGSTYYADSVKGRFTISRDNAKNTVYLQMNSLKPEDTAVYYCNKVRRASYYYEYDYWGQVTQVTVSS” the “polyreactivity (PSR sort gate)” value was “low polyreactivity”.
With “QVQLVESGGGLVQAGGSLRLSCAASGSIFPPNAMGWDRQAPGKERELVAGISQSGGSTYYAESVKGRFTISRDNAKNTVYLQMNSLKPEDTAVYYCARSFYSGRRYYYWGQGTQVTVSS” the “polyreactivity (PSR sort gate)” value was “high polyreactivity”.
With “QVQLVESGGVLDQAGGSLRLICAASGITLFHYVMGWYRQAPGKEMELVAVISSSGGSTYYADSVKGRFTISRDNAKNTVYLQMNSLKPEDTAVYYCAAETDSRKARVLYDYWGQGTQVTVSS” the “polyreactivity (PSR sort gate)” value was “high polyreactivity”.
In the case of “QVQLVESGGGLVQAGGSLRLSCAASVSTFKPYAMGWYRQAPGKERELVSAISGSGGSTYYADSVKGRFTISRDNAKNTVYLQMNSLKPEDTAVYYCAARFYVSYYYFGYEYWGQGTQVTVSS”, the “polyreactivity (PSR sort gate)” value is reported as “high polyreactivity”.
For “QVHLVESGGGLVQAGGSLRLSCAASGFTFYSYAMGWYRPPPGKEREFVAAITIGGGSTNYADSVKGRFTISRDIAKNTVYLQMNSLKPEDTAVYYCNVDYTLHFGYWGQGTQVTVSS”, the “polyreactivity (PSR sort gate)” value was “low polyreactivity”.
With “QVQLVESGGGLVQAGGSLRLSCAASGSIFYWYAMGWYRQAPGKERELVAGITGRGGSTYYADSVKGRFTISRDNAKNTVYLQMNSLKPEDSAVYYADFVKYGKYYQRYDYWAQGTQVTVSS” the “polyreactivity (PSR sort gate)” value was “high polyreactivity”.
For “QVQLVESGGGLVQAGGSLRLSCAASGSIFSSYVMGWYRQAPGKEREVVAAITSRGGSTYYADSVKGRFTISRDNAKNTVYLQMNSLKPEDTAVYYCAKGGTTWYWSGYRSIYFRYDYWGQGTQVTVSS”, the “polyreactivity (PSR sort gate)” value was “high polyreactivity”.
With “QVQLVESGGGLVQAGGSLRLSCAASGRTFRPYAMGWYRQAPGKERELVAAITSGVSTYYADSVKGRFTISRDNAKNTVYLQMNSLKPEDTAVYYCNKVISREVGIRMDYWGQGTQVTVSS” the “polyreactivity (PSR sort gate)” value was “high polyreactivity”.
For “QVQLVESGGGLVQAGGSLRLSCAASGITFGRNTMGWSRQAPGKERELVAAIDSGANTYADSVKGRFTISSDNAKNTVYLQMISLKPEDSAVYYCAVDGGEFSSYGYWGQGTQVTVSW”, the “polyreactivity (PSR sort gate)” value was “low polyreactivity”.
With “QVQLVESGGGLVQAGGSLRLSCAASGFTFTQYAMGWYGQAPGKEREFVAAITASGGSTYYADSVKGRFTISRDNAKNTVYLQMNSLKPEDTAVYYCAAKGRPDGKYDYWGQGTQVTVSS” the “polyreactivity (PSR sort gate)” value was “high polyreactivity”.
With “QVQLVESGGGLVQAGGSLRLSCAASGFIFYYNAMGWYRQAPGKERELVAAISSSAGSTYYADSVKGRFTISRDNAKNTVYLQMNSLKPEDTAVYYCNADSSYRTIDSASDYDYWGQGTQVTVSS” the “polyreactivity (PSR sort gate)” value was “low polyreactivity”.
For “QVQLVESGGGLVQAGGSLRLSCAASGSIFFLYAMGWSRQAPGKEWELVAAISRTGSTYADSVKGRFTISRDNAKNTVYLQMNSLKPEDTAVYYCADEYRYYWYGTMNYWGQGTQVTVSS”, the “polyreactivity (PSR sort gate)” value was “low polyreactivity”.
With “QVQLQESGGGLVQAGGSLRLSCAASGTISDSGLMGWYRQAPGKERELVAGISSGGITNYADSVKGRFTISRDNAKNTVYMQMNSLKPEDTAVYWGQGSQVTVSS” the “polyreactivity (PSR sort gate)” value was “low polyreactivity”.
For “QVQLVESGGGLVHAGGSLRLSCAASGIIFRFYAMGWYRQAPAKERELVAAISSGGSTYYADSVKGRFTISRDNAKNTVYLQMIRLKPEDTAVYYCNARVRYKRTVRYGYWGQGTQVTVSS”, the “polyreactivity (PSR sort gate)” value was “high polyreactivity”.
With “QVQLVESGGGLVQAGGSLRLSCAASGRIFYRNVMGWYRQAPGKERELVAAISYRGGSTSYADSVKGRFTISRDNAKNTVYLQMYSLKPEDTAVYYCNAGRIRPAYSDREYWGQGTQVTVSS” the “polyreactivity (PSR sort gate)” value was “low polyreactivity”.
With “QVQLVESGGGLVQAGGSLRLSCAASGFTFGWYAMGWYRQAPGKERELVATISWSGSSTYYADSVKGRFTISRDNAKNTVYLQMNSLKPEDTAVYYCNAVYGRFVVLRYDYWGQGTQVTVSS” the “polyreactivity (PSR sort gate)” value was “high polyreactivity”.
With “QDQLVESGGGLVQAGGSLRLSCAASGSTFDGYAMGWYRPAPGKERELVADITSGGSTYYADSVKGRFTISRDNAKNTVYLQMNSLKPEDTAVYYCAVEGWWDDYNSRAGEFNYWGQRTQVTVSS” the “polyreactivity (PSR sort gate)” value was “low polyreactivity”.
In the case of “QVQLVESGGGLVQAGGSLRLTCAASGSTSEVYAMGWYRQAPGKEREFVAAISRSGGTTYYADSVKGRFTISRDNAKNTVYLQMKSVKPEDTAVYYCNARGYSGVSGKYGYWGQGTQVTVSS”, the “polyreactivity (PSR sort gate)” value is reported as “high polyreactivity”.
For “QVQLVESGGGLVQAGGSLRLSCAASGRIFGTYAMGWYRQAPGKERELGAAITQSGGRTYYADSVKGRFTISRDNAKKTDYLQMKSLKPEDTAVYYCNKVTYRGIGLGYDYWGQGTQVTVSS”, the “polyreactivity (PSR sort gate)” value was “high polyreactivity”.
